# Measured values: patent CN1660912A
# T1: IL-7 (UniProt P13232)
# T1 sequence (looked up): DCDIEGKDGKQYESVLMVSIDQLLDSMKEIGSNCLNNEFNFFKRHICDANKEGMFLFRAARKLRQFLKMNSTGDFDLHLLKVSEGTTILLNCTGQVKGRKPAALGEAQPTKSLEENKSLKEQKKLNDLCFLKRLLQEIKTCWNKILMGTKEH
# T2: M-CSF (UniProt P09603)
# T2 sequence (looked up): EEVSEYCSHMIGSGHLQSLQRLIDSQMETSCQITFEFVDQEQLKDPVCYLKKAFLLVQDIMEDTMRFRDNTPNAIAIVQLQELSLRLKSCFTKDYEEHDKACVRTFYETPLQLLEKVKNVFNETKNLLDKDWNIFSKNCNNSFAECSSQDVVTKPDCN
# T3: ENA78 (UniProt P42830)
# T3 sequence (looked up): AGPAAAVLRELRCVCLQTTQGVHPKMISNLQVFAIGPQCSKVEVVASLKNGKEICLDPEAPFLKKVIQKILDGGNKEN
# T4: NAP-2 (UniProt P02775)
# T4 sequence (looked up): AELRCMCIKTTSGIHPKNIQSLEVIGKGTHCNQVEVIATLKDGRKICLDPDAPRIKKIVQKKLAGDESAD
# T5: PF-4 (UniProt P02776)
# T5 sequence (looked up): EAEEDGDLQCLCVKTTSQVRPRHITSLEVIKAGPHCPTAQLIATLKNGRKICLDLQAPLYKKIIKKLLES
# Assays:
# [1] = target: 白细胞介素-8(IL-8), E.Coli表达的基因重组人体单核细胞来源的IL-8, 72个氨基酸 (human) (UniProt P10145); test: cell-based or functional assay
# BSA = BSA (UniProt P02769); test: ELISA, cross-reaction (Table 1)
# EGF = EGF (UniProt P01133); test: ELISA, cross-reaction (Table 1)
# GM-CSF = GM-CSF (UniProt P04141); test: ELISA, cross-reaction (Table 1)
# HSA = HSA (UniProt P02768); test: ELISA, cross-reaction (Table 1)
# IL-16 = IL-16 (UniProt Q14005); test: ELISA, cross-reaction (Table 1)
# IL-1β = IL-1β (UniProt P01584); test: ELISA, cross-reaction (Table 1)
# IL-7 = target: T1, IL-7; test: ELISA, cross-reaction (Table 1)
# M-CSF = target: T2, M-CSF; test: ELISA, cross-reaction (Table 1)
# MCAF = MCAF (UniProt P13500); test: ELISA, cross-reaction (Table 1)
# MCP-3 = MCP-3 (UniProt P80098); test: ELISA, cross-reaction (Table 1)
# TGF-β = test: ELISA, cross-reaction (Table 1)
# TNF-α = TNF-α (UniProt P01375); test: ELISA, cross-reaction (Table 1)
# b-FGF = b-FGF (UniProt P09038); test: ELISA, cross-reaction (Table 1)
# [2] = target: 白细胞介素-8(IL-8), E.Coli表达的基因重组人体单核细胞来源的IL-8, 72个氨基酸 (human) (UniProt P10145); test: ELISA, cross-reaction (Table 1)
# ENA78 = target: T3, ENA78; test: ELISA, cross-reaction with IL-8 homologues (Table 2)
# GCP2 = GCP2 (UniProt P80162); test: as above
# GROα = GROα (UniProt P09341); test: as above
# NAP-2 = target: T4, NAP-2; test: as above
# PF-4 = target: T5, PF-4; test: as above
# [3] = target: 白细胞介素-8(IL-8), E.Coli表达的基因重组人体单核细胞来源的IL-8, 72个氨基酸 (human) (UniProt P10145); test: as above
# [4] = target: 白细胞介素-8(IL-8), E.Coli表达的基因重组人体单核细胞来源的IL-8, 72个氨基酸 (human) (UniProt P10145); test: ELISA, plate coated with 1ug/ml IL-8, antibody 3 ng/ml, mean
# [5] = target: 白细胞介素-8(IL-8), E.Coli表达的基因重组人体单核细胞来源的IL-8, 72个氨基酸 (human) (UniProt P10145); test: ELISA, plate coated with 1ug/ml IL-8, antibody 30 ng/ml, mean
# [6] = target: 白细胞介素-8(IL-8), E.Coli表达的基因重组人体单核细胞来源的IL-8, 72个氨基酸 (human) (UniProt P10145); test: ELISA, plate coated with 1ug/ml IL-8, antibody 15 ng/ml, mean
# [7] = target: 白细胞介素-8(IL-8), E.Coli表达的基因重组人体单核细胞来源的IL-8, 72个氨基酸 (human) (UniProt P10145); test: ELISA, plate coated with 1ug/ml IL-8, antibody 3 ng/ml, replicate 1
# [8] = target: 白细胞介素-8(IL-8), E.Coli表达的基因重组人体单核细胞来源的IL-8, 72个氨基酸 (human) (UniProt P10145); test: ELISA, plate coated with 1ug/ml IL-8, antibody 3 ng/ml, replicate 2
# [9] = target: 白细胞介素-8(IL-8), E.Coli表达的基因重组人体单核细胞来源的IL-8, 72个氨基酸 (human) (UniProt P10145); test: ELISA, plate coated with 1ug/ml IL-8, antibody 30 ng/ml, replicate 1
# [10] = target: 白细胞介素-8(IL-8), E.Coli表达的基因重组人体单核细胞来源的IL-8, 72个氨基酸 (human) (UniProt P10145); test: ELISA, plate coated with 1ug/ml IL-8, antibody 15 ng/ml, replicate 1
# [11] = target: 白细胞介素-8(IL-8), E.Coli表达的基因重组人体单核细胞来源的IL-8, 72个氨基酸 (human) (UniProt P10145); test: ELISA, plate coated with 1ug/ml IL-8, antibody 30 ng/ml, replicate 2
# [12] = target: 白细胞介素-8(IL-8), E.Coli表达的基因重组人体单核细胞来源的IL-8, 72个氨基酸 (human) (UniProt P10145); test: ELISA, plate coated with 1ug/ml IL-8, antibody 15 ng/ml, replicate 2
# Sequence of UniProt P10145 (P10145 21-99): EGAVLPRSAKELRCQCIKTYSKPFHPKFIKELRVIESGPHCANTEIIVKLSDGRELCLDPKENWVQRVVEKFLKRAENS
# Sequence of UniProt P80098 (P80098 24-99 limits assumed): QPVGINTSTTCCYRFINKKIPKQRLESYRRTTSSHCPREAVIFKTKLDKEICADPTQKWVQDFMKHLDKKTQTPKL
# Sequence of UniProt P02769 (P02769 25-607 limits assumed): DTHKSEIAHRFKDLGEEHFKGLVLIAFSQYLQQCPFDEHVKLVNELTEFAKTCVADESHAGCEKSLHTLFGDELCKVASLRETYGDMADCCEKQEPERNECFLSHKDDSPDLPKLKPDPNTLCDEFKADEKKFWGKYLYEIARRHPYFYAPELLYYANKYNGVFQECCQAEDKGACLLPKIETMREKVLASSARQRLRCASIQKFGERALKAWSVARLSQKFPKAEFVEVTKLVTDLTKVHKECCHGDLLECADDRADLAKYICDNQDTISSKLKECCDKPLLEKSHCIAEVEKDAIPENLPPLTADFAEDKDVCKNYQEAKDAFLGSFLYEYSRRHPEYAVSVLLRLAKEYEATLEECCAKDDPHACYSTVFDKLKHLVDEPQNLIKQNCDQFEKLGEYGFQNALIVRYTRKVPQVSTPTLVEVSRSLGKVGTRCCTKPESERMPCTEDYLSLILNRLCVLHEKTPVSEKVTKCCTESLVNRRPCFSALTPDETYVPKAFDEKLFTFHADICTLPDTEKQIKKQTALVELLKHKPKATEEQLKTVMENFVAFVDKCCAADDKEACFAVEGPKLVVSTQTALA
# Sequence of UniProt P01133 (P01133 971-1023 limits assumed): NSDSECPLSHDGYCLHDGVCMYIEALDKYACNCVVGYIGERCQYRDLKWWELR
# Sequence of UniProt P04141 (P04141 18-144 limits assumed): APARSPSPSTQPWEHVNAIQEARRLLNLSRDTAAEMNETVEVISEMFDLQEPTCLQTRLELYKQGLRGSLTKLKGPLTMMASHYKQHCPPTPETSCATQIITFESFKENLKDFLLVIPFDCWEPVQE
# Sequence of UniProt P01375 (P01375 77-233 limits assumed): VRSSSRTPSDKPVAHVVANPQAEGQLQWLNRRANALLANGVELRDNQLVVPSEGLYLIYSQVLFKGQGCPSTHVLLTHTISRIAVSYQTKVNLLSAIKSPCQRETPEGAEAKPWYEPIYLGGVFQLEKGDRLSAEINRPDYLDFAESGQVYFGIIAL
# Sequence of UniProt P80162 (P80162 38-114 limits assumed): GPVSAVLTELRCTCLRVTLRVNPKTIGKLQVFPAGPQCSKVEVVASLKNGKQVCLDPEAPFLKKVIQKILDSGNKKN
# Sequence of UniProt P13500 (P13500 24-99 limits assumed): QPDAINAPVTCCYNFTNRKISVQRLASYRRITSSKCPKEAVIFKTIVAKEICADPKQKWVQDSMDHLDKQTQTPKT
# Sequence of UniProt Q14005 (Q14005 1212-1332 limits assumed): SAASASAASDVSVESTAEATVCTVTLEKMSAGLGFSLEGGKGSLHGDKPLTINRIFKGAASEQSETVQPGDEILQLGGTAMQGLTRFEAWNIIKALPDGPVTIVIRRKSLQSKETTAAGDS
# Sequence of UniProt P02768 (P02768 25-609): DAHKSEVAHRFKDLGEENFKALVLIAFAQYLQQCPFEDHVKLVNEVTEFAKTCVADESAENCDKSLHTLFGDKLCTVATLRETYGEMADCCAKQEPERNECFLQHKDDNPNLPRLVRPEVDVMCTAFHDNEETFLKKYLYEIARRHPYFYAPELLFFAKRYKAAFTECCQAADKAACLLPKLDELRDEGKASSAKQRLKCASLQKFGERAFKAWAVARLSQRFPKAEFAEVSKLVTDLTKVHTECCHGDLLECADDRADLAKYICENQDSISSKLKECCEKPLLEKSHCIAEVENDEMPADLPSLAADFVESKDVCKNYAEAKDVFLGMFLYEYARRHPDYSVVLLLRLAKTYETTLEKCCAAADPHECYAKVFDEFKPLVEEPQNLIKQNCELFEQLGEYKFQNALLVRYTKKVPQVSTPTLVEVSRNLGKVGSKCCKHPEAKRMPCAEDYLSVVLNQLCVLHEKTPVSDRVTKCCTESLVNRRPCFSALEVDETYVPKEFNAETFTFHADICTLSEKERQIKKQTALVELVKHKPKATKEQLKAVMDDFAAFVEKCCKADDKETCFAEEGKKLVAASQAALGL
# Sequence of UniProt P09038 (P09038 143-288 limits assumed): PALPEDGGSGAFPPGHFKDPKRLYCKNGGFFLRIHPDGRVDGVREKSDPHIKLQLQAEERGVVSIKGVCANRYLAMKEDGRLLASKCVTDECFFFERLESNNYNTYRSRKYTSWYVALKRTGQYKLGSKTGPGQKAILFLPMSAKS
# Sequence of UniProt P01584 (P01584 117-269 limits assumed): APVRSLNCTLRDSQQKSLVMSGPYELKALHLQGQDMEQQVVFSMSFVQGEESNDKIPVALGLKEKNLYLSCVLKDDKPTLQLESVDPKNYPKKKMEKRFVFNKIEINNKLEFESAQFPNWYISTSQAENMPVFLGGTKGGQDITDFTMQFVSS
# Sequence of UniProt P09341 (P09341 35-107 limits assumed): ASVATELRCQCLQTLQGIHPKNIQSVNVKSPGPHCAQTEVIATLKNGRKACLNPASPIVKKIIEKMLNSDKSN
binder,measurement,setting,value
"抗IL-8单克隆抗体 克隆6E6(又称I8-60) (antibody, part only; not given: light variable and mouse constant regions, IgG1, V domains shown, part only) VH: QVKLQQSGGGLVQPGGSLKFSCAASGFDFSRYWMSWVRQAPGKGLEWIGEINPDSTTINYTPSLKDKFIISRDNAKNTLYLQMSKVRSEDTALYYCARLDGYYGYFDYWGQGTTVTVSS","化学趋向抑制率 (antibody 0.05μg/mL, IL-8 10ng/ml, Ab∶Ag 5∶1)",[1],17.1%
same,"化学趋向抑制率 (antibody 0.5μg/mL, IL-8 10ng/ml, Ab∶Ag 50∶1)",[1],83.9%
same,"化学趋向抑制率 (antibody 5μg/mL, IL-8 10ng/ml, Ab∶Ag 500∶1)",[1],99.8%
same,"化学趋向抑制率 (antibody 50μg/mL, IL-8 10ng/ml, Ab∶Ag 5000∶1)",[1],118%
same,"抑制率(%) (IL-8 20 ng/ml, antibody 0.1 ug/ml)",[1],48.9%
same,"抑制率(%) (IL-8 20 ng/ml, antibody 1 ug/ml)",[1],81.1%
same,"抑制率(%) (IL-8 20 ng/ml, antibody 10 ug/ml)",[1],91.1%
same,"趋化指数 (IL-8 20 ng/ml, antibody 0.1 ug/ml)",[1],2.24
same,"趋化指数 (IL-8 20 ng/ml, antibody 1 ug/ml)",[1],1.46
same,"趋化指数 (IL-8 20 ng/ml, antibody 10 ug/ml)",[1],1.22
same,O.D.值,BSA,0.147 OD
same,O.D.值,EGF,0.044 OD
same,O.D.值,GM-CSF,0.037 OD
same,O.D.值,HSA,0.129 OD
same,O.D.值,IL-16,0.044 OD
same,O.D.值,IL-1β,0.029 OD
same,O.D.值,IL-7,0.06 OD
same,O.D.值,M-CSF,0.044 OD
same,O.D.值,MCAF,0.023 OD
same,O.D.值,MCP-3,0.024 OD
same,O.D.值,TGF-β,0.021 OD
same,O.D.值,TNF-α,0.039 OD
same,O.D.值,b-FGF,0.027 OD
same,O.D.值,[2],> 2 OD
same,O.D.值,ENA78,0.073 OD
same,O.D.值,GCP2,0.088 OD
same,O.D.值,GROα,0.097 OD
same,O.D.值,NAP-2,0.031 OD
same,O.D.值,PF-4,0.113 OD
same,O.D.值,[3],> 2 OD
same,OD 450 平均值,[4],0.365 OD450
same,OD 450 平均值,[5],1.18 OD450
same,OD 450 平均值,[6],0.667 OD450
same,OD 450,[7],0.352 OD450
same,OD 450,[8],0.377 OD450
same,OD 450,[9],1.09 OD450
same,OD 450,[10],0.626 OD450
same,OD 450,[11],1.27 OD450
same,OD 450,[12],0.708 OD450
"抗IL-8嵌合型抗体 (Chimeric anti-IL8 Ab) (antibody, part only; not given: light variable and human constant regions, not shown: a dimerising Fc or GST) heavy: QVKLQQSGGGLVQPGGSLKFSCAASGFDFSRYWMSWVRQAPGKGLEWIGEINPDSTTINYTPSLKDKFIISRDNAKNTLYLQMSKVRSEDTALYYCARLDGYYGYFDYWGQGTTVTVSS","抑制率(%) (IL-8 20 ng/ml, antibody 0.1 ug/ml)",[1],48.2%
same,"抑制率(%) (IL-8 20 ng/ml, antibody 1 ug/ml)",[1],80.2%
same,"抑制率(%) (IL-8 20 ng/ml, antibody 10 ug/ml)",[1],75.1%
same,"趋化指数 (IL-8 20 ng/ml, antibody 0.1 ug/ml)",[1],2.25
same,"趋化指数 (IL-8 20 ng/ml, antibody 1 ug/ml)",[1],1.48
same,"趋化指数 (IL-8 20 ng/ml, antibody 10 ug/ml)",[1],1.6
same,OD 450 平均值,[4],0.402 OD450
same,OD 450 平均值,[5],1.95 OD450
same,OD 450 平均值,[6],1.12 OD450
same,OD 450,[7],0.406 OD450
same,OD 450,[8],0.398 OD450
same,OD 450,[9],1.9 OD450
same,OD 450,[10],1.09 OD450
same,OD 450,[11],2 OD450
same,OD 450,[12],1.14 OD450
